Laboratory results taken from PMC5971433.

Columns and labels:
[1] = biological target: MtrAB (native, the MtrAB component of the MtrCAB complex) (Shewanella oneidensis MR-1); assay: small-angle neutron scattering (SANS); co-purified native MtrCAB at 3.5 and 9.7 mg/ml in 20 mM HEPES pH 7.8, 100 mM NaCl, 2.8 mM Fos-choline-12, 13% D2O (detergent contrast-matched); molecular mass from I(0), ab initio envelope
[2] = biological target: MtrCAB porin–cytochrome complex (Shewanella oneidensis MR-1)

stoichiometry N [1]	rate of electron transfer from STC internalised in MtrCAB proteoliposomes to external Fe(III) citrate (absorbance at 550 nm) (nM electrons s^-1) [2]	rate of electron transfer from external sodium dithionite to STC internalised in MtrCAB proteoliposomes (absorbance at 550 nm) (nM electrons s^-1) [2]	Substance
1			MtrC (native, from the MtrCAB complex) (natural protein)
	61	140	small tetraheme cytochrome (STC) (natural protein)
